# Measured values reported in publication PMC12637224, “The nonconserved integrin cytoplasmic region determines integrin subtype–specific characteristics by modulating talin1 binding kinetics” (The Journal of Biological Chemistry, 2025).
# T1: GST-fused talin1 FERM F2–F3 domain
# T1 chain: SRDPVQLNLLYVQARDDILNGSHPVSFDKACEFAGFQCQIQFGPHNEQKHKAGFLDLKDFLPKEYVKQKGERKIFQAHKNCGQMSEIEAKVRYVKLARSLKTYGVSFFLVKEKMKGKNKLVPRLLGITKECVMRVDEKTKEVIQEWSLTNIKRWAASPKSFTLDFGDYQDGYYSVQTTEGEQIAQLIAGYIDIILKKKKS
# T2: GST-fused talin1 FERM F2–F3 domain (GST carrier omitted. F2-F3 limits are not given; 206-405 is the usual talin1 F2-F3 construct. Mouse is assumed because the other talin1 constructs in the paper are mouse.)
# T2 chain: T1 chain
# B1: LFA1 (αL/β2 integrin), endogenous on mouse primary T cells (receptor)
# chain 1: YNLDTRPTQSFLAQAGRHFGYQVLQIEDGVVVGAPGEGDNTGGLYHCRTSSEFCQPVSLHGSNHTSKYLGMTLATDAAKGSLLACDPGLSRTCDQNTYLSGLCYLFPQSLEGPMLQNRPAYQECMKGKVDLVFLFDGSQSLDRKDFEKILEFMKDVMRKLSNTSYQFAAVQFSTDCRTEFTFLDYVKQNKNPDVLLGSVQPMFLLTNTFRAINYVVAHVFKEESGARPDATKVLVIITDGEASDKGNISAAHDITRYIIGIGKHFVSVQKQKTLHIFASEPVEEFVKILDTFEKLKDLFTDLQRRIYAIEGTNRQDLTSFNMELSSSGISADLSKGHAVVGAVGAKDWAGGFLDLREDLQGATFVGQEPLTSDVRGGYLGYTVAWMTSRSSRPLLAAGAPRYQHVGQVLLFQAPEAGGRWNQTQKIEGTQIGSYFGGELCSVDLDQDGEAELLLIGAPLFFGEQRGGRVFTYQRRQSLFEMVSELQGDPGYPLGRFGAAITALTDINGDRLTDVAVGAPLEEQGAVYIFNGKPGGLSPQPSQRIQGAQVFPGIRWFGRSIHGVKDLGGDRLADVVVGAEGRVVVLSSRPVVDVVTELSFSPEEIPVHEVECSYSAREEQKHGVKLKACFRIKPLTPQFQGRLLANLSYTLQLDGHRMRSRGLFPDGSHELSGNTSITPDKSCLDFHFHFPICIQDLISPINVSLNFSLLEEEGTPRDQKVGRAMQPILRPSIHTVTKEIPFEKNCGEDKKCEANLTLSSPARSGPLRLMSSASLAVEWTLSNSGEDAYWVRLDLDFPRGLSFRKVEMLQPHSRMPVSCEELTEGSSLLTKTLKCNVSSPIFKAGQEVSLQVMFNTLLNSSWEDFVELNGTVHCENENSSLQEDNSAATHIPVLYPVNILTKEQENSTLYISFTPKGPKTQQVQHVYQVRIQPSAYDHNMPTLEALVGVPWPHSEDPITYTWSVQTDPLVTCHSEDLKRPSSEAEQPCLPGVQFRCPIVFRREILIQVTGTVELSKEIKASSTLSLCSSLSVSFNSSKHFHLYGSKASEAQVLVKVDLIHEKEMLHVYVLSGIGGLVLLFLIFLALYKVGFFKRNLKEKMEADGGVPNGSPPEDTDPLAVPGEETKDMGCLEPLRESDKD
# chain 2: QECTKYKVSSCRDCIQSGPGCSWCQKLNFTGPGEPDSLRCDTRAQLLLKGCPADDIMDPRSIANPEFDQRGQRKQLSPQKVTLYLRPGQAAAFNVTFRRAKGYPIDLYYLMDLSYSMLDDLNNVKKLGGDLLQALNEITESGRIGFGSFVDKTVLPFVNTHPEKLRNPCPNKEKACQPPFAFRHVLKLTDNSNQFQTEVGKQLISGNLDAPEGGLDAIMQVAACPEEIGWRNVTRLLVFATDDGFHFAGDGKLGAILTPNDGRCHLEDNMYKRSNEFDYPSVGQLAHKLSESNIQPIFAVTKKMVKTYEKLTEIIPKSAVGELSDDSSNVVQLIKNAYYKLSSRVFLDHSTLPDTLKVTYDSFCSNGASSIGKSRGDCDGVQINNPVTFQVKVMASECIQEQSFVIRALGFTDTVTVQVRPQCECQCRDQSREQSLCGGKGVMECGICRCESGYIGKNCECQTQGRSSQELERNCRKDNSSIVCSGLGDCICGQCVCHTSDVPNKEIFGQYCECDNVNCERYNSQVCGGSDRGSCNCGKCSCKPGYEGSACQCQRSTTGCLNARLVECSGRGHCQCNRCICDEGYQPPMCEDCPSCGSHCRDNHTSCAECLKFDKGPFEKNCSVQCAGMTLQTIPLKKKPCKERDSEGCWITYTLQQKDGRNIYNIHVEDSLECVKGPNVAAIVGGTVVGVVLIGVLLLVIWKALTHLTDLREYRRFEKEKLKSQWNNDNPLFKSATTTVMNPKFAES
# B2: synthetic integrin β3 cytoplasmic tail peptide (peptide)
# peptide: KLLITIHDRKEFAKFEEERARAKWDTANNPLYKEATSTFTNITYRGT
# modifications: GST carrier omitted. F2-F3 limits are not given; 206-405 is the usual talin1 F2-F3 construct. Mouse is assumed because the other talin1 constructs in the paper are mouse.
# B3: synthetic integrin β2 cytoplasmic tail peptide (peptide)
# peptide: KALIHLSDLREYRRFEKEKLKSQWNNDNPLFKSATTTVMNPKFAES
# modifications: GST carrier omitted. F2-F3 limits are not given; 206-405 is the usual talin1 F2-F3 construct. Mouse is assumed because the other talin1 constructs in the paper are mouse.
# B4: synthetic integrin β2 cytoplasmic tail peptide (peptide, UniProt P05107 724-769, looked up)
# peptide: B3 peptide
# notes: integrin β2 cytoplasmic tail peptide; also called β2 integrin; β2-CT; source: synthetic peptide (GenScript)
# B5: synthetic integrin β1 cytoplasmic tail peptide (peptide)
# peptide: KLLMIIHDRREFAKFEKEKMNAKWDTGENPIYKSAVTTVVNPKYEGK
# modifications: GST carrier omitted. F2-F3 limits are not given; 206-405 is the usual talin1 F2-F3 construct. Mouse is assumed because the other talin1 constructs in the paper are mouse.
# B6: synthetic integrin β7 cytoplasmic tail peptide (peptide)
# peptide: RLSVEIYDRREYSRFEKEQQQLNWKQDSNPLYKSAITTTINPRFQEADSPTL
# modifications: GST carrier omitted. F2-F3 limits are not given; 206-405 is the usual talin1 F2-F3 construct. Mouse is assumed because the other talin1 constructs in the paper are mouse.
# B7: αV/β3 integrin, endogenous on mouse primary T cells (receptor)
# chain 1: FNLDVESPAEYAGPEGSYFGFAVDFFEPSTSSRMFLLVGAPKANTTQPGIVEGGQVLKCECSSSRRCQPIEFDSTGNRDYAKDDPLEFKSHQWFGASVRSKQDKILACAPLYHWRTEMKQEREPVGTCFLQDGTKTVEYAPCRSKNIDADGQGFCQGGFSIDFTKADRVLLGGPGSFYWQGQLISDQVAEIISKYDPNVYSIKYNNQLATRTAQAIFDDSYLGYSVAVGDFNGDGIEDFVSGVPRAARTLGMVYIYDGKNMSSLHNFTGEQMAAYFGFSVAATDINGDDYADVFIGAPLFMDRGSDGKLQEVGQVSVSLQRAVGDFQTTKLNGFEVFARFGSAIAPLGDLDQDGFNDIAIAAPYGGEDKKGLVYIFNGRSTGLNSVPSQILEGQWAAQSMPPSFGYSMKGATDVDRNGYPDLVVGAFGVDRAVLYRARPVVTVNAGLEVYPSILNQDNKICPLPGTALKVSCFNVRFCLKADGKGTLPRKLHFQVELLLDKLKQKGAIRRALFLHNRSPVHSKTMTVFRGGQMQCEELVAYLRDESEFRDKLTPITIFMEYRLDQRTAADATGLQPILNQFTPANVSRQAHILLDCGEDNVCKPKLEVSVNSDQKKIYIGDDNPLTLTVKAQNQGEGAYEAELIVSIPPQADFIGVVRNNEALARLSCAFKTENQTRQVVCDLGNPMKAGTQLLAGLRFSVHQQSEMDTSVKFDLKIQSSNSFDNVSPVVSYKVDLAVLAAVEIRGVSSPDHIFLPIPNWEYKENPETEEDVGPIVQHIYELRNNGPSSFSKAILNLQWPYKYNNNTLLYILHYDIDGPMNCTADTEINPLRIKTPEKNDTAAAGQGERNHLITKRDLTLREGDVHTLGCGIAKCLQITCQVGRLDRGKSAILYVKSLLWTETFMNKENQNHSYSLKSSASFNIIEFPYKNLPIEDLFNSTLVTTNITWGIQPAPMPVPVWVIILAVLAGLLLLAVLVFVMYRMGFFKRVRPPQEEQEREQLQPHENGEGNSET
# chain 2: ESNICTTRGVNSCQQCLAVSPVCAWCSDETLSQGSPRCNLKENLLKDNCAPESIEFPVSEAQILEARPLSSKGSGSSAQITQVSPQRIALRLRPDDSKIFSLQVRQVEDYPVDIYYLMDLSFSMKDDLSSIQTLGTKLASQMRKLTSNLRIGFGAFVDKPVSPYMYISPPQAIKNPCYNMKNACLPMFGYKHVLTLTDQVSRFNEEVKKQSVSRNRDAPEGGFDAIMQATVCDEKIGWRNDASHLLVFTTDAKTHIALDGRLAGIVLPNDGHCHIGTDNHYSASTTMDYPSLGLMTEKLSQKNINLIFAVTENVVSLYQNYSELIPGTTVGVLSDDSSNVLQLIVDAYGKIRSKVELEVRDLPEELSLSFNATCLNNEVIPGLKSCVGLKIGDTVSFSIEAKVRGCPQEKEQSFTIKPVGFKDSLTVQVTFDCDCACQAFAQPSSPRCNNGNGTFECGVCRCDQGWLGSMCECSEEDYRPSQQEECSPKEGQPICSQRGECLCGQCVCHSSDFGKITGKYCECDDFSCVRYKGEMCSGHGQCNCGDCVCDSDWTGYYCNCTTRTDTCMSTNGLLCSGRGNCECGSCVCVQPGSYGDTCEKCPTCPDACSFKKECVECKKFNRGTLHEENTCSRYCRDDIEQVKELTDTGKNAVNCTYKNEDDCVVRFQYYEDTSGRAVLYVVEEPECPKGPDILVVLLSVMGAILLIGLATLLIWKLLITIHDRKEFAKFEEERARAKWDTANNPLYKEATSTFTNITYRGT
# Assays:
# [1] = molecular target: HaloTag-fused talin1 (HT-talin1) expressed in BAF/LFA1 cells (UniProt P26039); test: single-molecule binding analysis (HT-Tln1 imaging in BAF/LFA1 cells); conditions: ICAM1+PMA, read off a plot
# [2] = molecular target: T3, HaloTag-fused talin1 (HT-talin1), endogenous knock-in in mouse primary T cells (mouse (endogenous knock-in in mouse T …, UniProt P26039 1-2541, HaloTag labelled with HT SaraFluor 650T Ligand)); test: naive T cells, on ICAM1
# [3] = molecular target: T3, HaloTag-fused talin1 (HT-talin1), …; test: Th2 cells, on ICAM1
# [4] = molecular target: T3, HaloTag-fused talin1 (HT-talin1), …; test: naive T cells, on ICAM1; remark: listed apart in the source
# [5] = molecular target: T3, HaloTag-fused talin1 (HT-talin1), …; test: activated T cells, on ICAM1
# [6] = molecular target: T1, GST-fused talin1 FERM F2–F3 domain; test: BLI
# [7] = molecular target: T1, GST-fused talin1 FERM F2–F3 domain; test: BLI
# [8] = molecular target: T2, GST-fused talin1 FERM F2–F3 domain; test: BLI; Octet RH96; GST-talin1 FERM F2–F3 (10 μg/ml) immobilized on Octet GST Biosensors; synthetic integrin CT peptides at 4.9, 14.8, 44.4 and 133 μM as analytes in 25 mM Tris–HCl, 150 mM NaCl, 0.05% Triton X-100, pH 7.5; binding to GST alone subtracted; conditions: both partners purified
# [9] = molecular target: T3, HaloTag-fused talin1 (HT-talin1), …; test: naive T cells, on PECAM1
# [10] = molecular target: T3, HaloTag-fused talin1 (HT-talin1), …; test: Th2 cells, on PECAM1
# [11] = β2β7: n = 1453, β2β7-NND: n = 1726, parent: est. 19
# Chain of HaloTag-fused talin1 (HT-talin1) expressed in BAF/LFA1 cells (P26039 whole entry, looked up, the tested form may be a part): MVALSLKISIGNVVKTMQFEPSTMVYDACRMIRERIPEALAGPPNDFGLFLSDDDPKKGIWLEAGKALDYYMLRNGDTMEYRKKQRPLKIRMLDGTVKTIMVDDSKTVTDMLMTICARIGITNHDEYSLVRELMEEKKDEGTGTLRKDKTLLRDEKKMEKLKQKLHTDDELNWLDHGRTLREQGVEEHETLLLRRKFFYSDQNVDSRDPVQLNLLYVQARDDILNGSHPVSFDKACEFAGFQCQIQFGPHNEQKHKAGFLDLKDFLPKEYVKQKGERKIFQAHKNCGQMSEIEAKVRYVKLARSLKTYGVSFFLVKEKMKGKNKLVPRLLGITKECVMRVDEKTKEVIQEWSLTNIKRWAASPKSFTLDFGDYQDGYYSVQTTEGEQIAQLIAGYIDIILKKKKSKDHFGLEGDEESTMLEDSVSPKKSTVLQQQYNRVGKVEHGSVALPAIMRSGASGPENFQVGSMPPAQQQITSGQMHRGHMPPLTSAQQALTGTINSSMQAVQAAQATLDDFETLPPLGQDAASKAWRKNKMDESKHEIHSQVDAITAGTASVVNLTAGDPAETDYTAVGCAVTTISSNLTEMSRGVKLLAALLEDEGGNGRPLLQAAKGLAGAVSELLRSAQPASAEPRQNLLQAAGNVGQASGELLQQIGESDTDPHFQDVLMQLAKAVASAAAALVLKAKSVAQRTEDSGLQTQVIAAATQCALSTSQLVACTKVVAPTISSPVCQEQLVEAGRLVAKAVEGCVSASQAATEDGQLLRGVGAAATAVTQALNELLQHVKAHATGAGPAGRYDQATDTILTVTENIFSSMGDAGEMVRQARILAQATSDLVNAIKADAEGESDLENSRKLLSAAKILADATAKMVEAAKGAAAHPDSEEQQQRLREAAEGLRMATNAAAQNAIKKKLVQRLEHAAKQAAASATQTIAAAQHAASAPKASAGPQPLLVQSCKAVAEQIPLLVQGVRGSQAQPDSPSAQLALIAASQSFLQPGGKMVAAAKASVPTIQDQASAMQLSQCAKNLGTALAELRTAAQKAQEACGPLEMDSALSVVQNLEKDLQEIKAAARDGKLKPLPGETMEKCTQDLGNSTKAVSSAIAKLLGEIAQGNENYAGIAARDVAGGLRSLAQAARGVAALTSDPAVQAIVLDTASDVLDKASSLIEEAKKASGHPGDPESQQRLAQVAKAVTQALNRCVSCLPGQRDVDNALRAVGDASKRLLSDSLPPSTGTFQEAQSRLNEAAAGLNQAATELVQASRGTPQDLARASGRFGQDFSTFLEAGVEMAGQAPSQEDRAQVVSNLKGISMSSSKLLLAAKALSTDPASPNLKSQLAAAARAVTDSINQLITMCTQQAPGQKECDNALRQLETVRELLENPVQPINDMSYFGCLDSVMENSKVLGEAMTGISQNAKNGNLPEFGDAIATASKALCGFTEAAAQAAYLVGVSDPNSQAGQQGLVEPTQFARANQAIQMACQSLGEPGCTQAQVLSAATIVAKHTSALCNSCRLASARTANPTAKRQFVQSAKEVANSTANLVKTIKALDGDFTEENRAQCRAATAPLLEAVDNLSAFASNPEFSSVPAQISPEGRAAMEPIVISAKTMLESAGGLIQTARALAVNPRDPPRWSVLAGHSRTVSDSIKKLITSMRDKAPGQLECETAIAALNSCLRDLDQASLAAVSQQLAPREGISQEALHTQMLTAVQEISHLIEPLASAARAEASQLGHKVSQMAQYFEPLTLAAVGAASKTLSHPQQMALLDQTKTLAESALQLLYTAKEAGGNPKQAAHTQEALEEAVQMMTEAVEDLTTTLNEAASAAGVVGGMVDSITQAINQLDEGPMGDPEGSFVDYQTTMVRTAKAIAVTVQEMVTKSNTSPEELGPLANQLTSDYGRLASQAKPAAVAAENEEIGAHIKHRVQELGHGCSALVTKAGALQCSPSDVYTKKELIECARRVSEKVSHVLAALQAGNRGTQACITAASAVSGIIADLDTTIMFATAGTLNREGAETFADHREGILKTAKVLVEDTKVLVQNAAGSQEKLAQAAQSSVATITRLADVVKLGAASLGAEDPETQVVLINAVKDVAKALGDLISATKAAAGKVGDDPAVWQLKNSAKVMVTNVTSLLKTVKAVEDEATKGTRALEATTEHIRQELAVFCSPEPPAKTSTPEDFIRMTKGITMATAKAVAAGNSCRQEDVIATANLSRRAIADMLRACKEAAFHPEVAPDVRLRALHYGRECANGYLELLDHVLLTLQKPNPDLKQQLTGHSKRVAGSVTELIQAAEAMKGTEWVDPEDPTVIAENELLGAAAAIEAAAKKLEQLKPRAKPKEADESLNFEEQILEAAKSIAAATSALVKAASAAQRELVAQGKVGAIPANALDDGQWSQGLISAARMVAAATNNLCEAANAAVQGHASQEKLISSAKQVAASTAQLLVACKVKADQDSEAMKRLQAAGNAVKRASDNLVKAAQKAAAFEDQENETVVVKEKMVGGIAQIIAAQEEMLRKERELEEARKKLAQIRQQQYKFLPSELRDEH
molecule,measurement,setting,value
chimeric LFA1 αLα4/β2β7 (cytoplasmic tails of αL and β2 replaced with those of α4 and β7) (from UniProt P13612;P26010) KQDS to NND (β7 WN linker),other: binding frequency (events/area),"[1]; β2β7: n = 22, β2β7-NND: n = 14, parent: est. 1.2",4.7 µm-2
same,other: frequency of binding time 1 to 10 s (yellow segment),[1]; [11],23%
same,"other: frequency of binding time, top of stacked bar (1 to 10 s plus >10 s)",[1]; [11],24%
B1,koff,[2],0.316 s⁻¹
same,koff,[3],0.17 s⁻¹
same,koff,[4],0.288 s⁻¹
same,koff,[5],0.279 s⁻¹
B2,koff,[6],0.00458 s⁻¹
same,Kd,[7],133 µM
B3,koff,[6],0.00398 s⁻¹
same,Kd,[7],43.5 µM
B4,fold higher affinity than m25 (β7 peptide),[8],3 fold
same,fold higher affinity than m26 (β3 peptide),[8],3 fold
same,fold higher affinity than m27 (β1 peptide),[8],2 fold
B5,koff,[6],0.00509 s⁻¹
same,Kd,[7],90.2 µM
B6,koff,[6],0.00597 s⁻¹
same,Kd,[7],124 µM
B7,koff,[9],0.326 s⁻¹
same,koff,[10],0.264 s⁻¹
